± gives the standard error. Fewer inactive variants are shown than the library holds.
B1: glmS ribozyme (parent)
chain: AUAAAAGCGCCAGAACUACAGAAAUGUAGUUGACGAGGAGGAGGUUUAUCGAAUUUUCGGCGGAUGCCUCCAAA

Legend:
Conditions in all cases: with glucosamine-6-phosphate
[1] = variants of: B1; assay: self-cleavage kobs at 640 uM GlcN6P; higher = faster cleavage; RNA array
Outline: (§1)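 Weighted Michaelis–Menten fits across concentrations supplied kcat and KM, based on kobs from one- or two-exponential decay fits to normalised per-tile medians. The data came from barcoded ribozyme variants transcribed in situ by E. coli RNA polymerase on sequenced MiSeq chips and tracked at 37 °C by a hybridised Cy3 probe. Glucosamine-6-phosphate (40 μM to 10 mM) in HEPES/KCl/Mg(OAc)2 buffer was flowed in.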

[2] = variants of: B1; assay: self-cleavage kobs at 2500 uM GlcN6P; higher = faster cleavage; RNA array
Outline: as §1

[3] = variants of: B1; assay: self-cleavage kobs at 10000 uM GlcN6P; higher = faster cleavage; RNA array
Outline: as §1

Variant	self-cleavage kobs at 640 uM GlcN6P [1]	self-cleavage kobs at 2500 uM GlcN6P [2]	self-cleavage kobs at 10000 uM GlcN6P [3]
A48U U49C U55A U56C U69C	< 1e-05 s⁻¹		
G9U U31A	< 1e-05 s⁻¹	< 1e-05 s⁻¹	< 1e-05 s⁻¹
C16U G32U C58G	0.00017 ± 3.4e-05 s⁻¹		
U45A U46C U47G C70U	0.000175 ± 8.3e-05 s⁻¹		
C16G U56C C58U	< 1e-05 s⁻¹		
G13C A48G U49C	< 1e-05 s⁻¹		
A33G A36U C70G	0.000157 ± 5.3e-05 s⁻¹		
A6G A42C U56A C61G	< 1e-05 s⁻¹		
G7U C16A G37U U45G	< 1e-05 s⁻¹		
G7A C16G A48U G60C C70A	< 1e-05 s⁻¹	< 1e-05 s⁻¹	
U30G A36U A42C A64U C67G	< 1e-05 s⁻¹	< 1e-05 s⁻¹	
G7A G40A A42C C67G	< 1e-05 s⁻¹	< 1e-05 s⁻¹	
A6G U30A A39U G60U	< 1e-05 s⁻¹	< 1e-05 s⁻¹	
G7U A53U U65G	< 1e-05 s⁻¹	< 1e-05 s⁻¹	
A36C G38A A53U C68G	9.97e-05 ± 4.4e-05 s⁻¹		
A6U A33G U54A	< 1e-05 s⁻¹		
G44U U46A A53U C70G	< 1e-05 s⁻¹		
G9C G63U G66A C68A C71A	< 1e-05 s⁻¹	< 1e-05 s⁻¹	
G38U U57A C71G	< 1e-05 s⁻¹	< 1e-05 s⁻¹	
C11A C16A C50G	0.000146 ± 4.5e-05 s⁻¹	8e-05 ± 2.7e-05 s⁻¹	
A15C U30C U31G U69G	0.00017 ± 4.8e-05 s⁻¹		
G13U A39U A48U G51A U55G C70A	< 1e-05 s⁻¹		
G40U U54C	0.000738 ± 0.00016 s⁻¹	0.00431 ± 0.0006 s⁻¹	

Variant	self-cleavage kobs at 640 uM GlcN6P [1]	self-cleavage kobs at 2500 uM GlcN6P [2]	self-cleavage kobs at 10000 uM GlcN6P [3]
A14C A33C C67G	< 1e-05 s⁻¹		
C16U A39G U55C	0.0143 ± 0.0027 s⁻¹		
C10G A14G U31A C34U G51C A53U U54C G66U	< 1e-05 s⁻¹		
C11A G38A U47C	< 1e-05 s⁻¹		
U30A G38A C50A G66U	< 1e-05 s⁻¹		
A14C G40A G60U	< 1e-05 s⁻¹	< 1e-05 s⁻¹	
G7U G41A U69G	< 1e-05 s⁻¹		
G26U U31C U47A A64G	0.000213 ± 6.9e-05 s⁻¹		
G38U U56G C70A	0.000333 ± 0.00015 s⁻¹		
U54A C61G C71G	7.31e-05 ± 1.7e-05 s⁻¹	0.000139 ± 4.6e-05 s⁻¹	
G29C G37U U46A	< 1e-05 s⁻¹	< 1e-05 s⁻¹	< 1e-05 s⁻¹
G13U A15C C58G	0.00154 ± 0.00048 s⁻¹	7.7e-05 ± 2.3e-05 s⁻¹	8.16e-05 ± 1.4e-05 s⁻¹
A15G A33G A48G G60U	< 1e-05 s⁻¹		
U31A C34U G51U	< 1e-05 s⁻¹	< 1e-05 s⁻¹	
G38C G51U G59A G60A	< 1e-05 s⁻¹		
A6C C16G G37C A39G U45G U47A	< 1e-05 s⁻¹	< 1e-05 s⁻¹	
G35U U57G C71A	< 1e-05 s⁻¹	< 1e-05 s⁻¹	
A42U C50G G62A C71U	< 1e-05 s⁻¹	< 1e-05 s⁻¹	
A15C A33C A36C	< 1e-05 s⁻¹		
G9U A42G	< 1e-05 s⁻¹		
G35C A39C G43C U56A	< 1e-05 s⁻¹		
C11G G37C A39G	< 1e-05 s⁻¹	< 1e-05 s⁻¹	
A42C A53C G60A	< 1e-05 s⁻¹	< 1e-05 s⁻¹	

Variant	self-cleavage kobs at 640 uM GlcN6P [1]	self-cleavage kobs at 2500 uM GlcN6P [2]	self-cleavage kobs at 10000 uM GlcN6P [3]
A6U G9C A52U C67A C70U	< 1e-05 s⁻¹		
C50U A53U C70G	5.27e-05 ± 2.4e-05 s⁻¹		
G29C G43U A48G C71A	< 1e-05 s⁻¹	< 1e-05 s⁻¹	
C11U A14G A39C	0.000206 ± 5.2e-05 s⁻¹	0.000528 ± 0.00014 s⁻¹	
C16U G51A G63A G66A	< 1e-05 s⁻¹		
G40A A52C G59A C68U	< 1e-05 s⁻¹		
U31A C34U A42C A48U G62U	< 1e-05 s⁻¹		
C11G G29C A52G U55A C58A	< 1e-05 s⁻¹	< 1e-05 s⁻¹	< 1e-05 s⁻¹
A12C U56G G66U	0.000122 ± 2e-05 s⁻¹	0.000363 ± 8e-05 s⁻¹	
A15G C58A U69G	0.000122 ± 3.7e-05 s⁻¹	8.9e-05 ± 2.5e-05 s⁻¹	
A6G A12C G43C	< 1e-05 s⁻¹	< 1e-05 s⁻¹	
A23C C68U	0.00205 ± 0.00047 s⁻¹	0.00111 ± 0.00026 s⁻¹	
G29C U30C U49G	< 1e-05 s⁻¹		< 1e-05 s⁻¹
C8G G9U G51C	< 1e-05 s⁻¹		
A14C A39G C70U	0.000886 ± 0.00029 s⁻¹		
G9U U46G C58G	< 1e-05 s⁻¹	< 1e-05 s⁻¹	
G41C U45C C50U	< 1e-05 s⁻¹	< 1e-05 s⁻¹	
G13U G32A C70A	5.59e-05 ± 2.4e-05 s⁻¹	0.000106 ± 3.2e-05 s⁻¹	
A14G C34U A52C C68U C70U	8.57e-05 ± 4.2e-05 s⁻¹		
G9C C10U G13U	< 1e-05 s⁻¹		
A12C A33C G40U G63U C68U	< 1e-05 s⁻¹	< 1e-05 s⁻¹	
G7A G9C A33U G66C	< 1e-05 s⁻¹	< 1e-05 s⁻¹	

— the supplement of paper PMC7125110
